How the values were obtained:
[1] = biological target: the molecule itself; assay: SEC; analytical SEC (Superdex 200 5/150), 20 µM protein with 200 µM GDP, 300 µM AlCl3, 10 mM NaF (GDP•AlFx); 50 mM Tris-HCl pH 7.9, 150 mM NaCl, 5 mM MgCl2
[2] = biological target: the molecule itself; assay: specific GDPase activity against protein concentration (HPLC), quadratic fit; apparent Kd of dimer formation; isolated LG domains, 1 mM GDP, 37 °C, 50 mM Tris-HCl pH 7.9, 150 mM NaCl, 5 mM MgCl2; dimer to monomers
[3] = biological target: T1, human guanylate-binding protein 1 (GBP1), wild-type, non-farnesylated (human), P32455; assay: cross-linking; BS3 at 20-times molar excess, 20 µM protein, with 200 µM GDP, 300 µM AlCl3, 10 mM NaF (GDP•AlFx); 50 mM HEPES, 150 mM NaCl, 5 mM MgCl2; SDS-PAGE; details: remark: other sources report otherwise
T1 chain: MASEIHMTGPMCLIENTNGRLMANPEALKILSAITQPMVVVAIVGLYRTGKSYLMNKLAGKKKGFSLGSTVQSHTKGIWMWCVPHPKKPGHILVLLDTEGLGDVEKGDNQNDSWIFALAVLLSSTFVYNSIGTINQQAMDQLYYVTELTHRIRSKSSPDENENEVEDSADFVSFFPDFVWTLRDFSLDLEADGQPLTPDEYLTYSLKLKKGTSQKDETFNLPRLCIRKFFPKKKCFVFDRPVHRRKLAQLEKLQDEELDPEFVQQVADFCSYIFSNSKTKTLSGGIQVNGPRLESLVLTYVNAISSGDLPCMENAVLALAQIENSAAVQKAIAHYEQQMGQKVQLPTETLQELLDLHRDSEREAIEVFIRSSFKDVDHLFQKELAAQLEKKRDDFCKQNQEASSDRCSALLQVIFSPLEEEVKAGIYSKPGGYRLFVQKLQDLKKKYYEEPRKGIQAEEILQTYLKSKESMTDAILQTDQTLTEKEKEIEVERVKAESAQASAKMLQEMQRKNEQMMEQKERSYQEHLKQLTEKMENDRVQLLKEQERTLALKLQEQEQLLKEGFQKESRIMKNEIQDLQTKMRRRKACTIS

[4] = biological target: T1, human guanylate-binding protein 1 …; assay: specific GTPase activity against protein concentration (HPLC), quadratic fit; apparent Kd of dimer formation; non-farnesylated GBP1, 1 mM GTP, 37 °C, 50 mM Tris-HCl pH 7.9, 150 mM NaCl, 5 mM MgCl2; dimer to monomers; details: remark: other sources report otherwise
[5] = biological target: T2, human guanylate-binding protein 1 (GBP1), wild-type, farnesylated (human), P32455; assay: cryo-EM structure; single particle analysis of polymeric disks; 5 µM farnesylated GBP1 with GDP•AlFx for 20-30 min, no membranes; ~37 Å; details: remark: other sources report otherwise
T2 chain: T1 chain

B1: isolated LG domain of GBP1, wild-type (domain or fragment, human, UniProt P32455 1-317, looked up)
chain: MASEIHMTGPMCLIENTNGRLMANPEALKILSAITQPMVVVAIVGLYRTGKSYLMNKLAGKKKGFSLGSTVQSHTKGIWMWCVPHPKKPGHILVLLDTEGLGDVEKGDNQNDSWIFALAVLLSSTFVYNSIGTINQQAMDQLYYVTELTHRIRSKSSPDENENEVEDSADFVSFFPDFVWTLRDFSLDLEADGQPLTPDEYLTYSLKLKKGTSQKDETFNLPRLCIRKFFPKKKCFVFDRPVHRRKLAQLEKLQDEELDPEFVQQVADFCSYIFSNSKTKTLSGGIQVNGPRLESLVLTYVNAISSGDLPCMENAVL
notes: large GTPase (LG) domain of GBP1, human; stop codon in place of A318 (primer A318*); also called wild-type LG domain; WT; source: E. coli, pQE-80L, purified (Ni Sepharose HP, Superdex 200)
Question: With B1 as the binder, how does the “stoichiometry N” value [1] read?
Answer: 2

Question: And the Kd [2]?
Answer: 110 µM

B2: human guanylate-binding protein 1 (GBP1), wild-type, non-farnesylated, P32455 1-592 (natural protein)
chain: T1 chain
Question: Which results are given for B2?
Answer: stoichiometry N [3]: 2; Kd [4]: 1900 nM

B3: human guanylate-binding protein 1 (GBP1), wild-type, farnesylated, P32455 1-592 (natural protein)
chain: T1 chain
modifications: here or on the partner: farnesyl moiety at the C-terminal CaaX box motif; farnesyl moiety at the C-terminal CaaX box motif
Question: B3 was tested. Which subunits (dimeric building blocks) in a planar polymeric disk [5] did it give?
Answer: 30 subunits
